Where two headings read alike, the source gives them in different places. A value given as a limit tells only on which side of the number the result lay.

The target of data set [1] is T1, thrombin (Tb) (UniProt P00734;P00734 328-363;364-622). Briefly: 0.1 ng/mL thrombin.
Data set [2] concerns the target T2, SARS-CoV-2 nucleocapsid protein (NP) (SARS-CoV-2, UniProt P0DTC9 1-419). The data set is described as follows: MST.
The target of data set [3] is T3, Tau441 (longest isoform of tau) (human, UniProt P10636-8 1-441). The data set is described as follows: competition.
The target in data set [4] is T2, SARS-CoV-2 nucleocapsid protein (NP). The data set is described as follows: MST. This is another data set of the same source.
Data set [5] has as its target T1, thrombin (Tb). Briefly: thrombin 0.02-20 pg/mL in water.
Data set [6] addresses T3, Tau441 (longest isoform of tau). The data set is described as follows: competition. The source holds these as a separate data set.

In the case of CGCTTACGACAATATTCCTTAGGGGCACCGCTACATTGACACATCCAGC (ssDNA, 3' C3 spacer) [N9-Apt], the binding result (with thrombin (Tb) [1]; in data set [3]) was “no binding” throughout. Also, in data set [2], the binding signal was above 5 fold affinity vs Nor-Apt.

B1: Nor-Apt (ssDNA)
DNA: GCTGGATGTCGCTTACGACAATATTCCTTAGGGGCACCGCTACATTGACACATCCAGC
modifications: 3' C3 spacer
Consider B1, for which the binding result in data set [4] is “binds”. AGTCCGTGGTAGGGCAGGTTGGGGTGACT (ssDNA, 3' C3 spacer) [thrombin aptamer 29 nt]: the binding result with thrombin (Tb) [5] is “binds”.

On to CCTGTCAGGTCTTTGACGAGGCTTTTCTTC (ssDNA, 3' C3 spacer) [Tau aptamer (core)], for which the binding result in data set [6] is listed as “binds”.

The record behind these values is publication doi:10.1101/2025.11.02.686180.
